# Experimental data: US20240084276
# Residue numbers refer to the chain shown, from its start.
# Experiments:
# Assay in all cases: cell_activity
# [1] = test system: T1, MIT 25-26x.91 (synthetic construct); conditions: 500 ng mRNA, FlpIn CHO; 16% in repeat (FIG. 4)
# T1 sequence: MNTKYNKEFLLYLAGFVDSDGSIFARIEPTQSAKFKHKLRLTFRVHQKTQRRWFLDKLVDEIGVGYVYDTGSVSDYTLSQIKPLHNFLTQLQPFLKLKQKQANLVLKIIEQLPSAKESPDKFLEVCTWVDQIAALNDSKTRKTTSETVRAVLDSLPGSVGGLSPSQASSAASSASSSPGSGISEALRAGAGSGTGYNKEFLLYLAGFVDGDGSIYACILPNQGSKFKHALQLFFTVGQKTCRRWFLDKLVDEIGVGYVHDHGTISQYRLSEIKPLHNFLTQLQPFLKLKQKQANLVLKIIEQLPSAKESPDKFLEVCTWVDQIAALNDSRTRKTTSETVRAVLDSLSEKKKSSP
# [2] = test system: T2, MIT 25-26x.48 (synthetic construct); conditions: 500 ng mRNA, FlpIn CHO
# T2 sequence: T1 sequence with S19A, Q80E, H259N, H261F, T263S, H276Y
# [3] = test system: T3, MIT 25-26L.35 (synthetic construct); conditions: 500 ng mRNA, FlpIn CHO
# T3 sequence: T1 sequence with S19A, H46W, T70E, D75S, Q80E, H259Q, T263R
substance,measurement,setting,value
MIT 25-26 wild-type site (m.3243A),activity,[1],20 % indels
same,activity,[2],44 % indels
same,activity,[3],2 % indels
